Here are results for 4 molecules from patent publication US9546211B2 (SINGH MOLECULAR MEDICINE, LLC, priority 2014, dated 2017).

Values joined by “and” are separate entries in the source; they are usually repeats but may differ in a detail not shown here. Equal values may be shown once.

The target in one test is TNF-alpha (Homo sapiens, UniProt P01375). Description: Inhibition of TNF-alpha cytotoxicity against U937 cells. The class given is cell-based. As to conditions: constant dose of TNF-alpha at EC50.
Sequence of TNF-alpha (P01375 77-233 limits assumed): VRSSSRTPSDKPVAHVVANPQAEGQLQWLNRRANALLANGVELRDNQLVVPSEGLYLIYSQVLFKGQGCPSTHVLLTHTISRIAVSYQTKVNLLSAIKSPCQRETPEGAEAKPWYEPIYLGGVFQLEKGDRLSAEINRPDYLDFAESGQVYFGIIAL
The subject of a further test is MDA-MB-231 cells. Briefly: MTT proliferation assay, MDA-MB-231.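 For all read-outs here: human cancer cells grown to 90% confluence before treatment, treated groups compared against a vehicle control group.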 The class given is cell-based, human. As to conditions: for Mean Absorbance (570 nM) ± S.E., Overall Mean: 4 experiments.
In the next test the test system is PANC-1 cells. Briefly: MTT proliferation assay, PANC-1. Format: cell-based, human. As to conditions: for Mean Absorbance (570 nM) ± S.E., Overall Mean: 3 experiments; for Mean Absorbance (570 nM) ± S.E.: single experiments.
[1] abbreviates: MDA-MB-231, day 3, 10.0 μg/ml, single experiments.
The mark [2] stands for this setting: MDA-MB-231, day 3, 100 μg/ml, single experiments.
[3] abbreviates: MDA-MB-231, day 3 post treatment, 0.5 μg/ml.

B1: anti-TNF-alpha VHH69: anti-TNF-alpha sdAb, SEQ ID NO. 46 (TNF_69, SEQ ID NO. 64) (protein)
VHH: EVQLVESGGGSVLAGGSLRLSCVASGFTSRYNYMAWFRQAPGKEREGVATIGTASGSADYYGSVKDRFTISQDNAKNTVYLQMNSLKPEDTAMYYCAARTYGTISLTPSDYRYWGQGTLVTVSS
modifications: Camelid
For the molecule B1, the “inhibition of killing of U937 by TNF-alpha” value in the test with TNF-alpha was “inhibit killing”.

B2: B.VHH14: anti-STAT3 single-domain antibody VHH14, SEQ ID NO. 4, bacterial production (protein)
VHH: QVQLVESGGGSVQAGGSLRLSCVASTYTGCMGWFRQAPGKEREGVAALSSRGFAGHYTDSVKGRFSISRDYVKNAVYLQMNTVKPEDAAMYYCAAREGWECGETWLDRTAGGHTYWGQGTLVTVSS
modifications: Camelid
notes: 4, bacterial production
Turning to B2, the “% Inhibition” value in the test on MDA-MB-231 cells (MDA-MB-231, 3 days, 10.0 μg/ml, single experiments) is 23.1% and 20.0% and 38.5% and 23.3%; in the test on MDA-MB-231 cells (MDA-MB-231, 3 days, 100 μg/ml, single experiments) it was 57.0% and 42.8% and 62.3% and 60.6%; in the test with MDA-MB-231 cells (MDA-MB-231, 5 days, 0.5 μg/ml), 0%; with MDA-MB-231 cells (MDA-MB-231, 5 days, 1.0 μg/ml), 0%. Also, the “Mean Absorbance (570 nM) ± S.E., Overall Mean” value with MDA-MB-231 cells (MDA-MB-231, day 3, 10.0 μg/ml) turned out to be 0.504 ± 0.021; with MDA-MB-231 cells (MDA-MB-231, day 3, 100 μg/ml), 0.302 ± 0.043; with MDA-MB-231 cells (MDA-MB-231, day 5, 10.0 μg/ml), 0.688 ± 0.131; in the test with MDA-MB-231 cells (MDA-MB-231, day 5, 100 μg/ml) it was 0.475 ± 0.0690. In addition, the “Mean Absorbance (570 nM) ± S.E.” value in the test with MDA-MB-231 cells (setting [1]) is 0.456 ± 0.048 and 0.499 ± 0.018 and 0.502 ± 0.048 and 0.559 ± 0.041; in the test on MDA-MB-231 cells (setting [2]) it was 0.255 ± 0.005 and 0.357 ± 0.019 and 0.308 ± 0.021 and 0.287 ± 0.021; in the test on MDA-MB-231 cells (setting [3]), 0.666 ± 0.022.

B3: H.VHH14: anti-STAT3 sdAb VHH14, SEQ ID NO. 4; H. not defined, presumably mammalian production (protein)
VHH: B2 VHH
modifications: Camelid
Turning to B3, the “% Inhibition” value with MDA-MB-231 cells (MDA-MB-231, 5 days, 0.5 μg/ml) was 9.5%; with MDA-MB-231 cells (MDA-MB-231, 5 days, 1.0 μg/ml), 4.9%; in the test on MDA-MB-231 cells (MDA-MB-231, 5 days, 10.0 μg/ml, single experiments), 18.2%; with MDA-MB-231 cells (MDA-MB-231, 5 days, 100 μg/ml, single experiments), 18.9%. For the same molecule, the “Mean Absorbance (570 nM) ± S.E.” value in the test with MDA-MB-231 cells (setting [1]) was 0.588 ± 0.020; in the test on MDA-MB-231 cells (setting [2]) it was 0.416 ± 0.030; in the test with MDA-MB-231 cells (setting [3]), 0.485 ± 0.040; in the test with MDA-MB-231 cells (MDA-MB-231, day 5, 10.0 μg/ml, single experiments), 0.804 ± 0.015; with MDA-MB-231 cells (MDA-MB-231, day 5, 100 μg/ml, single experiments), 0.797 ± 0.010; with PANC-1 cells (PANC-1, day 3, 10.0 μg/ml), 0.920 ± 0.133 and 1.183 ± 0.114 and 1.163 ± 0.044. Besides, the “Mean Absorbance (570 nM) ± S.E.” value in the test on PANC-1 cells (PANC-1, day 3, 100 μg/ml) is 0.808 ± 0.239 and 0.993 ± 0.088 and 0.916 ± 0.088; in the test with PANC-1 cells (PANC-1, day 5, 10.0 μg/ml), 1.859 ± 0.033 and 1.165 ± 0.015 and 1.081 ± 0.103. Further, the “Mean Absorbance (570 nM) ± S.E., Overall Mean” value was 1.089 ± 0.085 in the test on PANC-1 cells (PANC-1, day 3, 10.0 μg/ml); 0.906 ± 0.054 in the test on PANC-1 cells (PANC-1, day 3, 100 μg/ml); 1.368 ± 0.247 in the test with PANC-1 cells (PANC-1, day 5, 10.0 μg/ml); 0.754 ± 0.333 in the test on PANC-1 cells (PANC-1, day 5, 100 μg/ml).

B4: anti-TNF-alpha VHH62: anti-TNF-alpha sdAb, SEQ ID NO. 47 (TNF_62, SEQ ID NO. 66) (protein)
VHH: QVQLVESGGGPVQAGETLRLSCTASGFTFAEADMGWYRQAPGHECELVSTITTEGITSEASSYYADSVRGRFTISRDNAKNMVYLQMNSLKPEDTAVYYCAPDPYAYSTYSDYCSWAQGTQGTLVTVSS
modifications: Camelid
As to B4, the “inhibition of killing of U937 by TNF-alpha” value with TNF-alpha is reported as “inhibit killing”.

One may read the % Inhibition as the share of the control response that was lost under treatment.
